Laboratory results: IntAct's records for PubMed 24165923

B1: R-spondin-1 (Homo sapiens), Q2MKA7 (parent)
chain: MRLGLCVVALVLSWTHLTISSRGIKGKRQRRISAEGSQACAKGCELCSEVNGCLKCSPKLFILLERNDIRQVGVCLPSCPPGYFDARNPDMNKCIKCKIEHCEACFSHNFCTKCKEGLYLHKGRCYPACPEGSSAANGTMECSSPAQCEMSEWSPWGPCSKKQQLCGFRRGSEERTRRVLHAPVGDHAACSDTKETRRCTVRRVPCPEGQKRRKGGQGRRENANRNLARKESKEAGAGSRRRKGQQQQQQQGTVGPLTSAGPA

Variants of: B1
Conditions: with znrf3_human ZNRF3, Q9ULT6
znrf3_human ZNRF3, Q9ULT6, sequence (Q9ULT6 whole entry): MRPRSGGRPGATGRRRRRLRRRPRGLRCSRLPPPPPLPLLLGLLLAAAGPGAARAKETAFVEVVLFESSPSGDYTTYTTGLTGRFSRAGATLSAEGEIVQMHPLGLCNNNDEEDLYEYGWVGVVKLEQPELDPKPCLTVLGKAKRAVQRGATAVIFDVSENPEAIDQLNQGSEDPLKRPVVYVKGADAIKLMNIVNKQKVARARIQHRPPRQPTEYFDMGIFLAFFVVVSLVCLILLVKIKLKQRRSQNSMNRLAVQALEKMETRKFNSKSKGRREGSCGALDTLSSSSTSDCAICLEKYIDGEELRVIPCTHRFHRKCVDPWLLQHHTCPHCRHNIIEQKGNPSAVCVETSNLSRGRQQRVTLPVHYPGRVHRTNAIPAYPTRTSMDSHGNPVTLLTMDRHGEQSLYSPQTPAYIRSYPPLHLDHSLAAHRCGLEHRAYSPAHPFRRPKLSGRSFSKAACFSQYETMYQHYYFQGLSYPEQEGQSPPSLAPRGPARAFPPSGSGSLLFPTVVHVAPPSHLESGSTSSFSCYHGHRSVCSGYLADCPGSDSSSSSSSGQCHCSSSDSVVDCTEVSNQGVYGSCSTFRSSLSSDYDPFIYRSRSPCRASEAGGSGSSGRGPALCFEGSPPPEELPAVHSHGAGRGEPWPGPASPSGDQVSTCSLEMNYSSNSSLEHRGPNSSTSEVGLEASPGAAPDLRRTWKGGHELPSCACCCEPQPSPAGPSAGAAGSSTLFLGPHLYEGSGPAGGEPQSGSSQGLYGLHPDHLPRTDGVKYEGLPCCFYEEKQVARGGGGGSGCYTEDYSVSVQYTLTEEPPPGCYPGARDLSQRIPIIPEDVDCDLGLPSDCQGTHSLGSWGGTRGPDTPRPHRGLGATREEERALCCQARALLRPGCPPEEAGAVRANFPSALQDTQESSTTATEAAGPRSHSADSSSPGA

Variant | effect of a mutation on the interaction
MRLGLCVVALVLSWTHLTISSRGIKGKRQRRISAEGSQACAKGCELCSEVNGCLKCSPKLFILLEANDIRQVGVCLPSCPPGYFDARNPDMNKCIKCKIEHCEACFSHNFCTKCKEGLYLHKGRCYPACPEGSSAANGTMECSSPAQCEMSEWSPWGPCSKKQQLCGFRRGSEERTRRVLHAPVGDHAACSDTKETRRCTVRRVPCPEGQKRRKGGQGRRENANRNLARKESKEAGAGSRRRKGQQQQQQQGTVGPLTSAGPA [R66A] | disrupting interaction
